These results are taken from patent publication US8357518B2, “Thermostable enzymes for the hydrolysis of mannan-containing polysaccharides” (The Board of Trustees of the University of Illinois, priority 2010, dated 2013).

What all share (assay): Catalytic efficiency with oligosaccharides, HPAEC (Man5A-TM1)
Common to all, as to type: biochemical, Caldanaerobius polysaccharolyticus
What all share (details): other: Man5A-TM1 0.3 μM, oligosaccharide 30 μM, citrate buffer 50 mM, pH 5.5, 5 min, triplicate

Substrate in series [1]: OC[C@H]1O[C@@H](O[C@H]2[C@H](O)[C@@H](O)[C@H](O[C@H]3[C@H](O)[C@@H](O)[C@H](O[C@H]4[C@H](O)[C@@H](O)[C@H](O[C@H]5[C@H](O)[C@@H](O)C(O)O[C@@H]5CO)O[C@@H]4CO)O[C@@H]3CO)O[C@@H]2CO)[C@H](O)[C@@H](O)[C@@H]1O
The protocol: (§1) Cloning, expression, and purification of Man5A-TM1, Man5A-TM2 and Man5B. C. polysaccharolyticus was cultured in TYG medium and DNA was isolated from mid-log cultures and purified using the Qiagen DNeasy Blood and Tissue kit with an integrated RNase treatment step. The genome of C. polysaccharolyticus was partially sequenced by the W. M. Keck Biotechnology Center at the University of Illinois at Urbana-Champaign. A Newbler assembly was generated which is comprised of ½ plate of FLX PE 454 data and ½ plate of 8 kb paired-end GSFLX Titanium data using a Genome Sequencer instrument from 454 Life Sciences (Branford, Conn.). The partial genome sequence was uploaded onto the Rapid Annotation using Subsystem Technology (RAST) server (Aziz et al., BMC Genomics, 9:75, 2008). Auto-annotation of the C. polysaccharolyticus partial genome sequence identified ORF0760 as a gene predicted to encode a bifunctional β-D-mannanase/endoglucanase (Man5B). Man5A was previously identified in a recombinant phage library of C. polysaccharolyticus genomic DNA, which was screened for endoglucanase activity (Cann et al., J Bacteriol, 181:1643, 1999) and the full sequence of this gene was also identified in the partial genome sequence for C. polysaccharolyticus.
(§2) The DNA sequence corresponding to man5B was amplified by the PicoMaxx high fidelity PCR kit using genomic DNA as the template with the primer set Man5B-Forward and Man5B-Reverse (Table 1-1). The primers were engineered to incorporate a 5′-[…] (SEQ ID NO: 54) extension in Man5B-F and a 5′-[…] (SEQ ID NO: 55) extension in Man5B-R, which facilitated subsequent directional cloning. The resultant man5B amplicon was then digested with T4 DNA polymerase exonuclease activity, annealed with a similarly digested pET-46b vector and introduced into E. coli JM109 by electroporation. Man5A-TM1 was amplified using genomic DNA as template with primers Man5A-TM1-F and Man5A-TM1-R (Table 1-1). The primer sets for Man5A-TM1 and Man5A-TM2 were designed to include 5′-NdeI and 3′-XhoI restriction sites for subsequent directional cloning. The resulting amplicons were then cloned into the pGEM-T vector via TA-cloning and subcloned in-frame with the hexahistidine (His6) encoding sequence of a modified pET-28a expression vector via its NdeI-XhoI polylinker site. The truncated protein Man5A-TM2 originally named ManA-SLH-CBD was cloned as described in a previous study (Cann et al., J Bacteriol, 181:1643, 1999). Expression of each of the resulting gene constructs yielded fusion proteins containing an N-terminal polyhistidine tag sequence to facilitate affinity purification via metal chelate chromatography. The resulting plasmid constructs pET46-Man5B, pET28a-Man5A-TM1, and pET-28a-Man5A-TM2 were sequenced to confirm the integrity of the cloned genes (W. M. Keck Center for Comparative and Functional Genomics at the University of Illinois at Urbana-Champaign).
(§3) The plasmid constructs were then introduced into E. coli BL-21 CodonPlus (DE3) RIL competent cells by heat shock, and grown overnight in lysogeny broth (LB) agar medium supplemented with ampicillin (100 μg/mL) and chloramphenicol (50 μg/mL) at 37° C. After 12 h, single colonies were selected and used to inoculate fresh LB (10 mL) supplemented with the antibiotics above at the same concentrations, followed by culturing with aeration for 8 h at 37° C. The pre-cultures were then inoculated into fresh LB (1 L) supplemented with ampicillin and chloramphenicol and the cultures were incubated at 37° C. with vigorous aeration (225 rpm/min). The cultures were grown to an optical density of 0.3 at 600 nm, and the temperature was shifted to 16° C. and gene expression was induced by the addition of 0.1 mM isopropyl β-D-thiogalactopyranoside (IPTG). […]

Substrate in series [2]: OC[C@H]1O[C@@H](O[C@H]2[C@H](O)[C@H](O)[C@H](O[C@H]3[C@H](O)[C@H](O)[C@H](O[C@H]4[C@H](O)[C@H](O)C(O)O[C@@H]4CO)O[C@@H]3CO)O[C@@H]2CO)[C@@H](O)[C@@H](O)[C@@H]1O
The procedure:
as §1, §2, §3

Substrate in series [3]: OC[C@H]1O[C@@H](O[C@H]2[C@H](O)[C@@H](O)[C@H](O[C@H]3[C@H](O)[C@@H](O)[C@H](O[C@H]4[C@H](O)[C@@H](O)C(O)O[C@@H]4CO)O[C@@H]3CO)O[C@@H]2CO)[C@H](O)[C@@H](O)[C@@H]1O
The procedure:
as §1, §2, §3

Substrate in series [4]: OC[C@H]1O[C@@H](O[C@H]2[C@H](O)[C@H](O)[C@H](O[C@H]3[C@H](O)[C@H](O)[C@H](O[C@H]4[C@H](O)[C@H](O)[C@H](O[C@H]5[C@H](O)[C@H](O)C(O)O[C@@H]5CO)O[C@@H]4CO)O[C@@H]3CO)O[C@@H]2CO)[C@@H](O)[C@@H](O)[C@@H]1O
The procedure:
as §1, §2, §3

Substrate in series [5]: OC[C@H]1O[C@@H](O[C@H]2[C@H](O)[C@@H](O)[C@H](O[C@H]3[C@H](O)[C@@H](O)[C@H](O[C@H]4[C@H](O)[C@@H](O)[C@H](O[C@H]5[C@H](O)[C@@H](O)[C@H](O[C@H]6[C@H](O)[C@@H](O)C(O)O[C@@H]6CO)O[C@@H]5CO)O[C@@H]4CO)O[C@@H]3CO)O[C@@H]2CO)[C@H](O)[C@@H](O)[C@@H]1O
The procedure:
as §1, §2, §3

Substrate in series [6]: OC[C@H]1O[C@@H](O[C@H]2[C@H](O)[C@H](O)[C@H](O[C@H]3[C@H](O)[C@H](O)[C@H](O[C@H]4[C@H](O)[C@H](O)[C@H](O[C@H]5[C@H](O)[C@H](O)[C@H](O[C@H]6[C@H](O)[C@H](O)C(O)O[C@@H]6CO)O[C@@H]5CO)O[C@@H]4CO)O[C@@H]3CO)O[C@@H]2CO)[C@@H](O)[C@@H](O)[C@@H]1O
The procedure: as §1, §2, §3

B1: Caldanaerobius polysaccharolyticus endo-β-mannanase Man5A truncation mutant Man5A-TM1, SEQ ID NO: 28 (Caldanaerobius polysaccharolyticus) (protein)
chain: AGTSGDGRFHVVGNKIVDPDGKDFIIKGVNIQGYRSWEKRSVLQDVHLIADVWKFNTVRLNCFIGQNNWGEGTGANNDIDAIIKAFTAKKVVVEIDLHDTTGYPPLSNPPPAPGQPSLDQAIAWFKELAAKYKDNPYVWFNTMNEPGSSTAPLDPQWKVANEEIIKAIRSTGADNIIVVDGWSYANEGIEQNTPTVDEKRSAVLTYGQDLLNADSAKNTIFAFHNYNEGDIQKKVEDYIDRANAKGLYVFMEEYGKDYSDAAKEGVKSGLQAVMNKGAGRIYWNWDGYDLYDLTSGTGRGSGWEINKTDGSKPTNLSWVGDKIWDDNHGITPTFDDQNPKVDLALERLIANNNGFKAGDKVQFTTFLRNSGDLPIGKDSKVVVKFYVDGVQLGDPVEISGGIAVGQRIPVTSPELTVSKTDFTVKAVIDSSSTYADGAEDAVIENNWIEAAFNSTAPSSGYELVVTGIKITPDTVKEGDYVQAQVTVANQGPEATPVTNIIGWFYVNGYYYTLDDAAKSCAEQDNVTLKPGESITLSTKVKYRAAAPFNFSFVLENLYADDQNQSNNSITVNVPVKMGEGGVNMVSNPGFEDGLDSWQDWQQDMSAVPEAAHNGALGLKIGGGKAAGGGQDIPLKPNTTYILGAWAKFDSKPAGTFDVVVQYHLKDANNTYVQHILNFNETDWTYKQLLFTTPDVFGSTPQLALWKGDTSKANLYVDDVYLVEVSNLIVNGTAENGMDGWPDWGYPVSAVPEAAYGGTKGFKLSGGKQAGMGQKVALKPNTTYILGAWGKFTAKPGTYCDVIVQYHLKDANNTYVQNILRFTETDWTYKQVVFTTPDAFGSDPEFVLWKDDASNADFYADNITLVEV
On to B1, for which the kcat/Km is 9300 ± 2000 M⁻¹ s⁻¹ in series [1]; 17000 ± 4000 M⁻¹ s⁻¹ in series [2]; 11000 ± 2000 M⁻¹ s⁻¹ in series [3]; 33000 ± 3000 M⁻¹ s⁻¹ in series [4]; 20000 ± 2000 M⁻¹ s⁻¹ in series [5]; “(1.2 ± 0.2) × 10^2 mM^−1 s^−1” in series [6].
